What all share (format): biochemical, porcine
Data set [1] deals with T1, TRH-DE (Sus scrofa, UniProt A0A287AP33).
T1 construct: The inventor purified TRH-DE from porcine brain according to purification procedures previously published by Dr. K. Bauer; from tissue; host or cells: porcine brain (TRH-DE); bovine kidney (DPP-IV, gift from Dr. C. H. Williams)
The data set is described as follows: HPLC assay of peptide hydrolysis by TRH-DE (Glp production). The method in brief:
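Porcine brain TRH-DE incubated with 1 mM peptide in 20 mM potassium phosphate, pH 7.5, 37 °C: screen with 0.8 μg enzyme for 18 h; rate microassays with 0.8-3.2 μg enzyme for 5 min to 18 h, in triplicate. Reactions stopped with TFA; Glp quantified by C-18 reverse-phase HPLC, UV 206 nm.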

Data set [2] concerns the target T1, TRH-DE. The data set is described as follows: discontinuous fluorometric TRH-DE assay with TRHAMC as substrate. The conditions noted are these: measured indirectly, peptide treated as competitive inhibitor of TRHAMC hydrolysis; non-linear regression; mean±S.D. Here is the method:
(§1) The inventor purified TRH-DE from porcine brain according to purification procedures previously published by Dr. K. Bauer, (Max-Planck-Institut, Hannover, Germany) (1). TRH-DE was purified almost 20,000 fold. […] Dipeptidyl peptidase IV (DPP-IV) (EC 3.4.14.5), purified from bovine kidney (7.7 mg ml^−1, specific activity of 17.5 U mg^−1 with Gly-ProAMC as substrate), was obtained as a gilt from Dr. C. H. Williams (Queen's University Belfast, U.K). (DPP-IV was used as the coupling enzyme used in the fluorometric assays).
(§2) One unit (U) of enzyme activity was defined as that amount catalysing the formation of one μmol of product in one minute under the standard conditions employed. […]
(§3) Determination of inhibitor constants for selected TRH-DE substrates—The HPLC assay lacked sufficient sensitivity for determining kinetic constants. […] This assay employs TRHAMC as the substrate and depends on the measurement of the fluorescence of 7-amino-4 methyl coumarin (AMC) produced as follows:
We have shown that the amount of AMC formed under these conditions is a quantitative measure of TRHAMC cleavage (23). Initial rates for the hydrolysis of TRHAMC by TRH-DE were determined in triplicate at five different substrate concentrations both in the absence and presence of at least three concentrations of peptide. […]

Substrate in data set [3]: Cc1cc(=O)oc2cc(NC(=O)[C@@H]3CCCN3C(=O)[C@H](Cc3c[nH]cn3)NC(=O)[C@@H]3CCC(=O)N3)ccc12
Described as above. Particulars: other: Michaelis constant of TRHAMC measured directly, discontinuous assay; pH 7.5; 37.0 °C. Here is the method:
as §1
(§4) One unit (U) of enzyme activity was defined as that amount catalysing the formation of one μmol of product in one minute under the standard conditions employed. All incubations in the assays described below were carried out in 20 mM potassium phosphate buffer, pH 7.5, at 37° C.
as §3
(§5) We have shown that the amount of AMC formed under these conditions is a quantitative measure of TRHAMC cleavage (23). Initial rates for the hydrolysis of TRHAMC by TRH-DE were determined in triplicate at five different substrate concentrations both in the absence and presence of at least three concentrations of peptide. Ki values were obtained by non-linear regression analysis of the data collected. Determined in this way (i.e. by treating the peptide substrates as inhibitors of TRHAMC hydrolysis), these Ki values correspond to the Michaelis constants for those library peptides hydrolysed by TRH-DE (32).

Substrate in data set [4]: NC(=O)[C@@H]1CCCN1C(=O)[C@H](Cc1ccc(O)cc1)NC(=O)[C@@H]1CCC(=O)N1
Described as above. The conditions noted are these: other: measured indirectly, peptide treated as competitive inhibitor of TRHAMC hydrolysis; non-linear regression; mean±S.D.; pH 7.5; 37.0 °C. Here is the method: as §1, §4, §3, §5

Substrate in data set [5]: NC(=O)[C@@H]1CCCN1C(=O)[C@H](Cc1ccccc1)NC(=O)[C@@H]1CCC(=O)N1
The data set is described as above. The conditions noted are these: other: measured indirectly, peptide treated as competitive inhibitor of TRHAMC hydrolysis; non-linear regression; mean±S.D.; pH 7.5; 37.0 °C. Here is the method: as §1, §4, §3, §5

Substrate in data set [6]: Cc1cc(=O)oc2cc(NC(=O)[C@@H]3CCCN3C(=O)[C@H](Cc3c[nH]cn3)NC(=O)[C@@H]3CCC(=O)N3)ccc12
The data set is described as follows: continuous coupled fluorometric TRH-DE assay (TRHAMC substrate, DPP-IV coupling enzyme). The conditions noted are these: other: Michaelis constant of TRHAMC, non-linear regression, pH 7.5, 37.0 °C. The method, then:
as §1, §2
The reaction was monitored continuously by measuring the increase in AMC fluorescence. A linear progress curve with no discernible lag period was observed when the reaction was monitored over a period of 10 minutes. […]
In a preliminary experiment, the peptides were screened for their ability to inhibit TRH-DE activity. The initial rate of TRHAMC hydrolysis by TRH-DE was measured by incubating 5 μM TRHAMC with 1.23 μg DPP-IV and 0.32 μg TRH-DE, both in the absence and presence of each library peptide (1 mM final concentration) under standard assay conditions (23). […]
Fluorescence measurements were made using a Perkin Elmer LS 50B Luminescence Spectrometer fitted with a thernostated cell holder. […]

Turning to Glp-Thi-ProNH2, at TRH-DE [1] (estimated from HPLC rates of hydrolysis using Vmax=vo{(Km+[S])/[S]}), the Vmax was 2.19 ± 0.16 (6) U mg^−1. The Rate of hydrolysis at TRH-DE [1] (peptide 1 mM, 37° C., Glp production by HPLC, mean±S.D.) was 2.12 ± 0.16 (6) U mg^−1. Besides, at TRH-DE [2], the Km is 34 ± 6 µM.

B1: TRH-DE (Sus scrofa) (protein)
chain: MALDGERGEQEEEKKKKKKKKKRKKKKEEEGAKKSSSPFVATMGENDAALRAGGRGLSDPWADSVGVRPRTTERHITVHKRLVLAFAVSIVALLAVTMLAVLLSLRFDECGASIPPGADGGPAGFPARGGNESLPGSSRRDHHAGGDSSQPGAGREDTPETPSAQPPSEEEQEQWQPWTQLRLSGHLKPLHYNLMLTAFMENFTFSGEVNVEIACRNATRYVVLHASRVAVEKVQVAEDRVAGAVPVAGFFLYPQTQVLVVVLNRTLDAQRNYNLKIIYNALIENELLGFFRSSYVLHGERRFLGVTQFSPTHARKAFPCFDEPIYKATFKISIKHQATYLSLSNMPVETSVFEEDGWVTDHFSQTPLMSTYYLAWAICNFTYRETTTKSGVVVRLYARPDAIRRGSGDYALHITKRLIEFYEDYFKVPYSLPKLDLLAVPKHPYAAMENWGLSIFVEQRILLDPSVSSISYLLDVTMVIVHEICHQWFGDLVTPVWWEDVWLKEGFAHYFEFVGTDYLYPGWNMEKQRFLTDVLHEVMLLDGLASSHPVSQEVLRATDIDRVFDWIAYKKGAALIRMLANFMGHSVFQRGLQDYLTIHKYGNAARNDLWNTLSEALKRNGKYVNIQEVMDQWTLQMGYPVITIFGNTTAENRIIITQQHFIYDISAKAKPHELQNSSYLWQIPLTIVVGNRSHVSSEAIIWVSNKTEHHRITSLNKGSWLLGNINQTGYFRVNYDLRNWRLLIDQLIRNHEVLSVSNRAGLIDDAFSLARAGYLPQNIPLEIIRYLSEEKDFLPWHAASRALYPLDKLLDRMEKYNVFNEYILKQVATTYIKLGWPKNNFNGSLVQASYQHEELRREVIMLACSFGNKHCHQQASTLISDWISSNRNRIPLNVRDIVYCTGVSLLDEDVWEFIWMKFHSTTAISEKKILLEALTCSDDRNLLNRLLNLSLNSEVVLDQDAIDVIIHVARNPHGRDLAWKFFRDKWKILNTRYGEALFMNSKLISGVTEFLNTEGELKELKNFMKSYDGVAAASFSRAVETVEANVRWKMLYQDELFQWLGKALRH
notes: The inventor purified TRH-DE from porcine brain according to purification procedures previously published by Dr. K. Bauer; from tissue; host or cells: porcine brain (TRH-DE); bovine kidney (DPP-IV, gift from Dr. C. H. Williams)
For B1, the Km is 3.1 ± 0.5 µM in data set [3], 15 ± 3 (4) μM in data set [4], 55 ± 8 (3) μM in data set [5] and 3.5 ± 0.4 µM in data set [6]. Also, the Vmax was found to be 0.11 µmol/min/mg in data set [3], 0.67 µmol/min/mg in data set [4] and 1.64 µmol/min/mg in data set [5]. Also, the Vmax/Km in data set [3] was 40000 µL/min/mg; in data set [4] it was 50000 µL/min/mg; in data set [5], 30000 µL/min/mg.
